Reference: patent US5985599

Biological target: mouse beta1 Fc(gamma)R encoded by pFc113 (mouse)
Assay: sheep anti-mouse Ig rosetting on the cells of Table 5

**Q.** How did the % rosette formation (background) turn out when “irrelevant antibody (background control of Table 5)” was run?
**A.** The % rosette formation (background) was under 5%.

Biological target: dimeric human IgG1 (myeloma protein, chemically cross-linked) (human) [IgG part: P01857]
Assay: direct binding of 125I-dimeric human IgG1 to transfected COS-7 cells

**Q.** FcγRII Leu159-Ala (receptor) was tested. Which Ka did it give?
**A.** The Ka was 1e+07 M⁻¹.

**Q.** And the fold increase of binding over wild-type FcγRII?
**A.** The fold increase of binding over wild-type FcγRII was 10 fold.

**Q.** Which results are given for FcγRII Phe160-Ala (receptor)?
**A.** Ka: 1e+07 M⁻¹; fold increase of binding over wild-type FcγRII: 10 fold

**Q.** How did the Ka turn out when “human FcγRII (wild-type FcγRIIa) encoded by HFc3.0 (receptor)” was run?
**A.** The Ka was 1e+06 M⁻¹.

Biological target: dimeric human IgG1 (myeloma protein, chemically cross-linked) (human) [IgG part: P01857]
Assay: direct binding of 125I-dimeric hIgG1 to transfected COS-7 cells, corrected for expression

**Q.** What does the source list for FcγRII Arg/His131-Ala (receptor)?
**A.** percent binding compared to wild-type FcγRII (percent of wild-type): 21.9; percent decrease of hIgG1-dimer binding: 80%

**Q.** FcγRII Asp133-Ala (receptor) was tested. Which percent binding compared to wild-type FcγRII (percent of wild-type) did it give?
**A.** Its percent binding compared to wild-type FcγRII (percent of wild-type) is 114.

**Q.** With FcγRII Leu115-Ala (receptor) as the substance, how does the percent binding compared to wild-type FcγRII (percent of wild-type) read?
**A.** Its percent binding compared to wild-type FcγRII (percent of wild-type) is 20.6.

**Q.** For FcγRII Lys113-Ala (receptor), which percent binding compared to wild-type FcγRII (percent of wild-type) is on record?
**A.** The percent binding compared to wild-type FcγRII (percent of wild-type) was 15.9.

**Q.** Which percent binding compared to wild-type FcγRII (percent of wild-type) does the source give for FcγRII Phe129-Ala (receptor) here?
**A.** Its percent binding compared to wild-type FcγRII (percent of wild-type) is 8.2.

**Q.** And the percent decrease of hIgG1-dimer binding?
**A.** The percent decrease of hIgG1-dimer binding was over 90%.

**Q.** How did the percent binding compared to wild-type FcγRII (percent of wild-type) turn out when FcγRII Pro114-Ala (receptor) was run?
**A.** The percent binding compared to wild-type FcγRII (percent of wild-type) was 53.5.

**Q.** Which percent binding compared to wild-type FcγRII (percent of wild-type) does the source give for FcγRII Pro134-Ala (receptor) here?
**A.** Its percent binding compared to wild-type FcγRII (percent of wild-type) is 134.

**Q.** With FcγRII Val116-Ala (receptor) as the substance, how does the percent binding compared to wild-type FcγRII (percent of wild-type) read?
**A.** The percent binding compared to wild-type FcγRII (percent of wild-type) was 73.5.
